The values below come from patent US20240141039A1 (AGENUS, published 2024).

Test [1] deals with T1, full-length isoform 2 ECD of cynomolgus monkey CD96 (His-tagged) (cynomolgus monkey).
T1 construct: also called His-tagged isoform 2 of cynomolgus monkey CD96; cyno CD96 extracellular domain isoform 2
T1 chain: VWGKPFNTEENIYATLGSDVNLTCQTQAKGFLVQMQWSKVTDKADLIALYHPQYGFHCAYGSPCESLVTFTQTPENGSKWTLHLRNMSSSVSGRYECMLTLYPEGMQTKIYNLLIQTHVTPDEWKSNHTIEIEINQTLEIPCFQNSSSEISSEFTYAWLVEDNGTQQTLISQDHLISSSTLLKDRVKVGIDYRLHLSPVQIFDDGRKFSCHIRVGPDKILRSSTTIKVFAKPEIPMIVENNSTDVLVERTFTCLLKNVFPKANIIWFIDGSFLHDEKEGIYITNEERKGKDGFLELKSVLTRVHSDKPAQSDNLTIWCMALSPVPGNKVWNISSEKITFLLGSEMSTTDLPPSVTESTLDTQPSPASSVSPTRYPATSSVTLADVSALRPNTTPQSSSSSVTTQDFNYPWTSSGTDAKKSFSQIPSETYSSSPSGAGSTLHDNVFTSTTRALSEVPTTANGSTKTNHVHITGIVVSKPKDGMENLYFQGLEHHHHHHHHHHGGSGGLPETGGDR
The experiment in a line: SPR Biacore T200, geomean of experiments #1 and #2. As to the method: (§1) Briefly, surface plasmon resonance experiments were performed using a Biacore T200 instrument, and the association rate (kₐ), dissociation rate (kd), and dissociation constant (KD) were calculated from each experiment using a 1:1 binding model with Biacore T200 Evaluation Software.
Multispecific molecules were captured using a 30-sec injection at a flow rate of 10 μl/min to reach about 350 resonance units (RUs). […] The sensor chip was regenerated between cycles with two 30-sec injections of 10 mM glycine, pH 1.5. Sensorgrams were evaluated and fit to a simple Langmuir 1:1 interaction model using the global data analysis option of BIAevaluation 3.0 software. Data quality was verified by visually inspecting deviations and curve fitting, and by evaluating the parameters of Rₘₐₓ, Chi2, and Tc.
In general terms: In SPR one partner is held on a chip, and binding of the other changes the refractive index at the surface.

The target in test [2] is T2, full-length ECD of human TIGIT (His-tagged) (human).
T2 construct: also called His-tagged human TIGIT; human TIGIT extracellular domain
T2 chain: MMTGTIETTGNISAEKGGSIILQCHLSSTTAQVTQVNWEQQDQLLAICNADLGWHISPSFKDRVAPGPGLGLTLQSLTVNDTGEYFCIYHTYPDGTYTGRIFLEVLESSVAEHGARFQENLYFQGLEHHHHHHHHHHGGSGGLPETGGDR
The experiment in a line: SPR Biacore T200, Protein A capture, 1:1 model, experiment #2. As to the method:
as §1
(§2) Antibodies were captured using a 30-sec injection at a flow rate of 10 μl/min to reach about 500 resonance units (RUs). […] The sensor chip was regenerated between cycles with two 30-sec injections of 10 mM glycine, pH 1.5. Sensorgrams were evaluated and fit to a simple Langmuir 1:1 interaction model using the global data analysis option of BIAevaluation 3.0 software. Data quality was verified by visually inspecting deviations and curve fitting, and by evaluating the parameters of Rₘₐₓ, Chi2, and Tc.

Test [3] deals with T3, full-length ECD of cynomolgus monkey TIGIT (His-tagged) (cynomolgus monkey).
T3 construct: also called His-tagged cynomolgus monkey TIGIT; cyno TIGIT extracellular domain
The test is described as above. As to the method:
as §1, §2

Test [4] has as its target T4, wild type full-length human TIGIT expressed on cells (human, UniProt Q495A1 22-244).
T4 construct: whole, on cells; also called human TIGIT-CHO; human TIGIT CHO cells
T4 sequence (looked up): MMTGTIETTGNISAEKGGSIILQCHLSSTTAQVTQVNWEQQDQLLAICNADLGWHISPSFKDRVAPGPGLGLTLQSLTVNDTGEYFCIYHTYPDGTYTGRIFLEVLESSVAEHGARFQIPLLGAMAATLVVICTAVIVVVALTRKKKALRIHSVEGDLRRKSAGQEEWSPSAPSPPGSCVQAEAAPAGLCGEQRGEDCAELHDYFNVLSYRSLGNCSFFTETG
The experiment in a line: flow cytometry, blocking of CD155-Fc-PE binding to human TIGIT CHO cells, geomean of 3 experiments. As to the method: A 4× concentrated intermediate stock of each antibody was prepared in a microplate. Antibodies were serially diluted 1-to-4 in FACS buffer. […] Lastly, 25 μL of human TIGIT-CHO cells, prepared as described above, were added to each well. After a 30-minute incubation on ice, the cells were washed twice with cold FACS Buffer, and the cells were analyzed by flow cytometry (BD LSR Fortessa Flow Cytometer). The data were analyzed using the FlowJo software by sequentially gating on the FSC-A vs. SSC-A and SSC-H vs. SSC-A. Mean fluorescence intensity (MFI) values for PE were calculated, and the data were plotted by GraphPad Prism software and analyzed as described above.

For test [5], the target named is T2, full-length ECD of human TIGIT …. The experiment in a line: SPR Biacore T200, Protein A capture, 1:1 model, experiment #1. As to the method:
as §1
Multispecific molecules were captured using a 30-sec injection at a flow rate of 10 μl/min to reach about 1000 resonance units (RUs). […] The sensor chip was regenerated between cycles with two 30-sec injections of 10 mM glycine, pH 1.5. Sensorgrams were evaluated and fit to a simple Langmuir 1:1 interaction model using the global data analysis option of BIAevaluation 3.0 software. Data quality was verified by visually inspecting deviations and curve fitting, and by evaluating the parameters of Rₘₐₓ, Chi2, and Tc.

In test [6] the target is T4, wild type full-length human TIGIT …. The experiment in a line: flow cytometry, dual binding: CHO hu-TIGIT cells with antibody and soluble huCD96-His, Alexa Fluor 488 anti-His detection. From the text:
Cells were centrifuged at 300 g for five minutes.
Antibodies were serially diluted 1-to-3 in FACS buffer.
Background: Flow cytometry measures light scatter and fluorescence of single cells or particles in a stream.

B1: anti-TIGIT×CD96 multispecific molecule BA123 (bispecific antibody, human IgG1, kappa, lambda)
heavy 1: QVQLVQSGAEVKKPGASVKVSCKASGYTFTSYGISWVRQAPGQGLEWMGWISAYNANTNYAQKLQGRVTMTTDTSTSTAYMELRSLRSDDTAVYYCARSAGVLGGMDVWGRGTLVTVSSASTKGPSVFPLAPSSKSTSGGTAALGCLVKDYFPEPVTVSWNSGALTSGVHTFPAVLQSSGLYSLSSVVTVPSSSLGTQTYICNVNHKPSNTKVDKRVEPKSCDKTHTCPPCPAPELLGGPDVFLFPPKPKDTLMISRTPEVTCVVVDVSHEDPEVKFNWYVDGVEVHNAKTKPREEQYNSTYRVVSVLTVLHQDWLNGKEYKCKVSNKALPAPIEKTISKAKGQPREPQVYTLPPSREEMTKNQVSLSCAVKGFYPSDIAVEWESNGQPENNYKTTPPVLDSDGSFFLVSKLTVDKSRWQQGNVFSCSVMHEALHNHYTQKSLSLSPG
light 1: not shown
heavy 2: EVQLVQSGAEVKKPGSSVKVSCKASGYTFASYGISWVRQAPGQGLEWMGGITPFFNRVDVAEKFQGRVTITADKSTSTAYIELSSLRSEDTAVYYCARDLRRGGVGDAFDIWGRGTLVTVSSASTKGPSVFPLAPSSKSTSGGTAALGCLVKDYFPEPVTVSWNSGALTSGVHTFPAVLQSSGLYSLSSVVTVPSSSLGTQTYICNVNHKPSNTKVDKRVEPKSCDKTHTCPPCPAPELLGGPDVFLFPPKPKDTLMISRTPEVTCVVVDVSHEDPEVKFNWYVDGVEVHNAKTKPREEQYNSTYRVVSVLTVLHQDWLNGKEYKCKVSNKALPLPEEKTISKAKGQPREPQVYTLPPSREEMTKNQVSLWCLVKGFYPSDIAVEWESNGQPENNYKTTPPVLDSDGSFFLYSKLTVDKSRWQQGNVFSCSVMHEALHNHYTQKSLSLSPG
light 2: QSALTQPRSVSGSPGQSVTISCTGTSPDVGSHAYRSWYQQHPGKAPKLMIYEVSYRPSGVSNRFSGSKSGNTASLTISGLQAEDEADYYCSSYPPSSATVFGAGTKLTVLGQPKAAPSVTLFPPSSEELQANKATLVCLISDFYPGAVTVAWKADSSPVKAGVETTTPSKQSNNKYAASSYLSLTPEQWKSHRSYSCQVTHEGSTVEKTVAPTEC
notes: copies: 1 + 1 + 1 + 1
Consider B1, for which, in test [1], binding was put at a Kd of 45.3 nM.

B2: anti-TIGIT monospecific antibody BA148 (antibody, human IgG1, lambda)
heavy: EVQLVQSGAEVKKPGSSVKVSCKASGYTFASYGISWVRQAPGQGLEWMGGITPFFNRVDVAEKFQGRVTITADKSTSTAYIELSSLRSEDTAVYYCARDLRRGGVGDAFDIWGRGTLVTVSSASTKGPSVFPLAPSSKSTSGGTAALGCLVKDYFPEPVTVSWNSGALTSGVHTFPAVLQSSGLYSLSSVVTVPSSSLGTQTYICNVNHKPSNTKVDKRVEPKSCDKTHTCPPCPAPELLGGPDVFLFPPKPKDTLMISRTPEVTCVVVDVSHEDPEVKFNWYVDGVEVHNAKTKPREEQYNSTYRVVSVLTVLHQDWLNGKEYKCKVSNKALPLPEEKTISKAKGQPREPQVYTLPPSREEMTKNQVSLTCLVKGFYPSDIAVEWESNGQPENNYKTTPPVLDSDGSFFLYSKLTVDKSRWQQGNVFSCSVMHEALHNHYTQKSLSLSPGK
light: B1 light 2
notes: IgG1; also called anti-TIGIT IgG1 antibody BA148
Turning to B2, in test [2], the Kd (in general, a measure of binding affinity in units of concentration) was found to be 0.548 nM; the koff – broadly, the first-order rate constant of dissociation – turned out to be 0.000422 s⁻¹; the kon (in general, the rate constant with which the complex forms) stood at 770000 M⁻¹ s⁻¹. Besides, in test [3], the equilibrium dissociation constant (Kd) is 4.06 nM, the koff was determined as 0.00126 s⁻¹ and the kon is 310000 M⁻¹ s⁻¹. In addition, in test [4], the half-inhibitory concentration (IC50) (as a rule, the concentration that gives 50% inhibition) is 0.0084 µg/mL.

B3: anti-TIGIT×CD96 multispecific molecule BA127 (bispecific antibody, human IgG1, kappa, lambda)
heavy 1: QVQLVQSGAEVKKPGASVKVSCKASGYTFTTYALHWVRQAPGQRLEWMGWINTGSGDTKYSQKFQGRVTITRDTSASTAYMELSSLRSEDTAVYYCARSLGVYYGMDVWGQGTLVTVSSASTKGPSVFPLAPSSKSTSGGTAALGCLVKDYFPEPVTVSWNSGALTSGVHTFPAVLQSSGLYSLSSVVTVPSSSLGTQTYICNVNHKPSNTKVDKRVEPKSCDKTHTCPPCPAPELLGGPDVFLFPPKPKDTLMISRTPEVTCVVVDVSHEDPEVKFNWYVDGVEVHNAKTKPREEQYNSTYRVVSVLTVLHQDWLNGKEYKCKVSNKALPAPIEKTISKAKGQPREPQVYTLPPSREEMTKNQVSLSCAVKGFYPSDIAVEWESNGQPENNYKTTPPVLDSDGSFFLVSKLTVDKSRWQQGNVFSCSVMHEALHNHYTQKSLSLSPG
light 1: not shown
heavy 2: B1 heavy 2
light 2: B1 light 2
notes: Anti-CD96 arm = BA139, anti-TIGIT arm = BA150; copies: 1 + 1 + 1 + 1
For B3, in test [5], the Kd stood at 0.584 nM, the koff amounted to 0.000356 s⁻¹ and the kon turned out to be 610000 M⁻¹ s⁻¹. Further, the EC50 (read off the curve) (as a rule, the concentration at which the effect is half-maximal) in test [6] is roughly 0.3 µg/mL.
